Laboratory results as given in publication PMC6999906 (PLoS ONE, 2020).
pKi: −log10 of the molar value.

Key:
[1] = target: Mtb ThyX (thymidylate synthase ThyX) (Mycobacterium tuberculosis, UniProt P9WG57); assay: […]; also NADPH oxidase assay (IC50 about […]); format: biochemical
[2] = tested on: NC(=O)C1=CN([C@@H]2O[C@H](COP(=O)(O)OP(=O)(O)OC[C@H]3O[C@@H](n4cnc5c(N)ncnc54)[C@H](OP(=O)(O)O)[C@@H]3O)[C@@H](O)[C@H]2O)C=CC1; assay: purified protein; conditions: FAD
[3] = tested on: O=c1ccn([C@H]2C[C@H](O)[C@@H](COP(=O)(O)O)O2)c(=O)[nH]1; assay: purified protein; conditions: FAD
[4] = tested on: Nc1nc2c(c(=O)[nH]1)N1CN(c3ccc(C(=O)N[C@@H](CCC(=O)O)C(=O)O)cc3)C[C@H]1CN2; assay: purified protein; conditions: FAD

Chain of Mtb ThyX (thymidylate synthase ThyX) (P9WG57 whole entry): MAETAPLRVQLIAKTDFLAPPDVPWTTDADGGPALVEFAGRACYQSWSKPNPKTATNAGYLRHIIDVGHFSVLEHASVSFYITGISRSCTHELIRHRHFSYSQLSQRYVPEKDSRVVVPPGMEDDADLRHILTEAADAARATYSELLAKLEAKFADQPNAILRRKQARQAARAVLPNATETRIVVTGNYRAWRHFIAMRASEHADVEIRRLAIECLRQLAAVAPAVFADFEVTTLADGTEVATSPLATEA

Row | Molecule | pKi [1] | Km [2] | Vmax [2] | Km [3] | Vmax [3] | Km [4] | Vmax [4]
1 | CC1=CC(=O)c2c(O)cccc2C1=O [plumbagin, 5-hydroxy-2-methyl-1,4-naphthoquinone] | 5.09 |  |  |  |  |  | 
2 | Mtb ThyX (thymidylate synthase ThyX) (Mycobacterium tuberculosis H37Rv) |  | 35.22 µM | 0.00323 µmol/min/mg | 3.526 ± 0.68 µM | 0.00695 µmol/min/mg | 6.467 µM | 0.00228 µmol/min/mg
